Test results reported in US20050196396A1 (GREENVILLE HOSPITAL SYSTEM, published 2005).

Biological target: T1, KDR (full length, on cells) (human, UniProt P35968 20-1356)
T1 construct: whole, on cells; also called VEGFR2; kinase domain receptor
Assay: radioligand binding on HUVEC; 125I-KDR (Ig4-7) displaced by unlabeled KDR (Ig4-7)
Experimental: ¹²⁵I-KDR (Ig4-7) (100,000 cpm=<1 ng) was incubated with HUVEC.
Total binding of KDR (Ig4-7) was also compared between HUVEC and two human breast cancer cell lines that were reported to have KDR expression (T47-D and MCF-7 cell lines) (FIG. 7). Specific binding of KDR (Ig4-7) was approximately 88%.

T1 sequence (P35968 20-1356): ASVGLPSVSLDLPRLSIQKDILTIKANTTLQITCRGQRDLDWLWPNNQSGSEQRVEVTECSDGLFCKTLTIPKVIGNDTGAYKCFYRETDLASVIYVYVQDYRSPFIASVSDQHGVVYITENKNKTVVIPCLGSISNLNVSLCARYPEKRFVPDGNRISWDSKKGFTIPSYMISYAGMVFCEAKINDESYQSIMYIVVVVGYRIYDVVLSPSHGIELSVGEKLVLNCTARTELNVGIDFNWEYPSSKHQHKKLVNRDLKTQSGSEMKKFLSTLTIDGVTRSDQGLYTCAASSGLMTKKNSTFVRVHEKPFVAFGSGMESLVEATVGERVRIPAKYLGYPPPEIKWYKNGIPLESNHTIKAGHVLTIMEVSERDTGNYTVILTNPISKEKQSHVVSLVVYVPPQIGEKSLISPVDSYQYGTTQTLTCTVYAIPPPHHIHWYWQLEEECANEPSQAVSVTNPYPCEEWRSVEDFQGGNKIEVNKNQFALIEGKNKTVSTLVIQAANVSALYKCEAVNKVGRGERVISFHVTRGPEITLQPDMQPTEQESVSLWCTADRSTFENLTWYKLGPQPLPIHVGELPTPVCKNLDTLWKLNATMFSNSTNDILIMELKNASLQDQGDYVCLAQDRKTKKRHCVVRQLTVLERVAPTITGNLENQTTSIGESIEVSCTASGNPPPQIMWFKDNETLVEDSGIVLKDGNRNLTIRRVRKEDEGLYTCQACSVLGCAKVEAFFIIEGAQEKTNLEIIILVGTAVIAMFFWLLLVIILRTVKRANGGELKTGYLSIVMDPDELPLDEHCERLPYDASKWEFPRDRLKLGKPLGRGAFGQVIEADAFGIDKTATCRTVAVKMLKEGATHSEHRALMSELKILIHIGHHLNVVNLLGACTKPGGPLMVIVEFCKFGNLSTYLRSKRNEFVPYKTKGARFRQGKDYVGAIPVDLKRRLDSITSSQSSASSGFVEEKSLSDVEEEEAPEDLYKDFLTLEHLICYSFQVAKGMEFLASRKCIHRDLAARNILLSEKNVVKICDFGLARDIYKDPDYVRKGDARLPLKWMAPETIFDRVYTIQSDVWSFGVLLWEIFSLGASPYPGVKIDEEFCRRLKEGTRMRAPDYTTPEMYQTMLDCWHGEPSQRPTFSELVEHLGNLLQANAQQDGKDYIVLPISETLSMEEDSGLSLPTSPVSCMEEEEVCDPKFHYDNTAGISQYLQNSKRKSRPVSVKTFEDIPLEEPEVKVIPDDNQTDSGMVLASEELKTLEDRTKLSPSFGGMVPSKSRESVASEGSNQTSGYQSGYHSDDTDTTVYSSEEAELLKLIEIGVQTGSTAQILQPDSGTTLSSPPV

B1: KDR (Ig4-7) (receptor)
chain: HMFVAFGSGMESLVEATVGERVRIPAKYLGYPPPEIKWYKNGIPLESNHTIKAGHVLTIMEVSERDTGNYTVILTNPISKEKQSHVVSLVVYVPPQIGEKSLISPVDSYQYGTTQTLTCTVYAIPPPHHIHWYWQLEEECANEPSQAVSVTNPYPCEEWRSVEDFQGGNKIEVNKNQFALIEGKNKTVSTLVIQAANVSALYKCEAVNKVGRGERVISFHVTRGPEITLQPDMQPTEQESVSLWCTADRSTFENLTWYKLGPQPLPIHVGELPTPVCKNLDTLWKLNATMFSNSTNDILIMELKNASLQDQGDYVCLAQDRKTKKRHCVVRQLTVLERVAPTITGNLENQTTSIGESIEVSCTASGNPPPQIMWFKDNETLVEDSGIVLKDGNRNLTIRRVRKEDEGLYTCQACSVLGCAKVEAFFIIEGAQEK
modifications: 125I-labeled as tracer (labelled residues not stated); unlabeled as competitor
notes: also called 125I-KDR (Ig4-7); 125I-labeled KDR (Ig4-7)
EC50: ~10 µg/mL
